One block for each substance: values may come before it. Ends that are not written are not given here.
Legend:
m^7GTP-CBC [1] = biological target: T1, m^7GTP-CBC (Homo sapiens, UniProt P52298+Q09161); assay: ITC, binding to CBC in the presence of the cap analogue m^7GTP; details: for Kd: ITC, 25 °C, 20 mM HEPES, 120 mM NaCl, 2 mM TCEP, pH 7.8, CBC bound to m^7GTP, mean ± SD of at least two independent experiments, SD
T1 construct: 6-histidine tag (pETM30 vector) (N, cleaved yes); made in house; host or cells: CBP20 in E. coli Rosetta 2; CBP80ΔNLS in High Five insect cells; heterodimer reconstituted on Ni-sepharose
T1 sequence (Q09161 20-790): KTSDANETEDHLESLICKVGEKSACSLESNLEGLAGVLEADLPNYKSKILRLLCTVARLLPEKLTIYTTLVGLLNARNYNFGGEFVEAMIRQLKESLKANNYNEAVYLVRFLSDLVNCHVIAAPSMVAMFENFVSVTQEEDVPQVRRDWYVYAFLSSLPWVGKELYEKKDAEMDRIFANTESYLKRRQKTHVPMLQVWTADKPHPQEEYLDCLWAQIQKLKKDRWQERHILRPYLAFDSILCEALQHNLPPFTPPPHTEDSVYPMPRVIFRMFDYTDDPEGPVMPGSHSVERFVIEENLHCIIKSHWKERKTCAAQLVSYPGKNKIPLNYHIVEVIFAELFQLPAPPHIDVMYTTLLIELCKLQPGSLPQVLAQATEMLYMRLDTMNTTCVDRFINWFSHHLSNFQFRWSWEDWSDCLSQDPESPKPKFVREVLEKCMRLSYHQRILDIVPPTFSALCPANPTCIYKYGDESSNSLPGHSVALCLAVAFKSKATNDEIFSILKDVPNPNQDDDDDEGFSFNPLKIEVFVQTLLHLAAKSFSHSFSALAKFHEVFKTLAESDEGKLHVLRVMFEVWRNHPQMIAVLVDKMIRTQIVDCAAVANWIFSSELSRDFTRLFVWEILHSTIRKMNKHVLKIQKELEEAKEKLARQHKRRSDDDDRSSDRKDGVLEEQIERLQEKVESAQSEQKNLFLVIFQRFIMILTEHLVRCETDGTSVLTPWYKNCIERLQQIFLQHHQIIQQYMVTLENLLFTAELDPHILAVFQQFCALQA
T1 sequence (P52298 1-156): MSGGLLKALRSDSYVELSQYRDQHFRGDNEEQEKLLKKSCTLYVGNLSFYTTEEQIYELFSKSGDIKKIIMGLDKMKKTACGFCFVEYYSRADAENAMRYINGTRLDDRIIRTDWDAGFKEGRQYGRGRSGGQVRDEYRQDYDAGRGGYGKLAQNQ
Text: (§1) hARS2 isoform-4 (871 residues, UniProt:Q9BXP5-4, also known as isoform-e, NP_001122326) constructs (residues 147–871, 147–845, 763–871, 763–845, 827–871) hNELF-E (NM_002904.5) (244–380, 244–360) and hPHAX (NM_032177.3) (1–394, 103–294, 103–308, 103–327) were cloned into pETM11 (EMBL). Full-length hNELF-E (1–380) was cloned into pFASTBac and CBP20 into pETM30. Primers used are given in Supplementary Table 2. All constructs were expressed in E. coli Rosetta 2 (Novagen), except full-length NELF-E and CBP80ΔNLS (CBP80 with residues 1–19 deleted[2]), which were expressed in High Five insect cells (Life Technology). Cells were harvested and lysed by sonication in lysis buffer containing 50 mM HEPES, pH 7.8, 300 mM NaCl, 10% (v/v) glycerol, 5 mM β-mercaptoethanol. Lysates were clarified by centrifugation and applied on an equilibrated Ni-sepharose column (GE Healthcare), washed with 20 mM imidazole in lysis buffer, and eluted with 300 mM imidazole in lysis buffer. While dialysing into 20 mM HEPES, pH 7.8, 120 mM NaCl, 10% (v/v) glycerol, 5 mM β-mercaptoethanol, the N-terminal 6-histidine-tag was cleaved with His-tagged Tobacco Etch Virus (TEV) protease overnight in a ratio 1:100 mg TEV per mg protein. The cleaved protein was further purified first on Ni-sepharose to remove TEV and then using an anion exchange column (HiTrap Q, GE Healthcare) followed if necessary by a Heparin column (GE Healthcare). In both cases a NaCl gradient from 50 to 800 mM in 20 mM HEPES 7.8, 0.5 mM tris(2-carboxyethyl)phosphine was used. To reconstitute the CBC heterodimer, cleared His-tagged CBP20 lysate was first immobilised on a Ni-sepharose column. After washing the column with lysis buffer, the cleared CBP80 lysate was applied to the column and further purification steps performed as described above. To remove the access of CBP20 the flow through of the Ni-column after TEV cleavage was loaded on an anion exchange column (HiTrap Q, GE Healthcare) and CBC eluted by a NaCl gradient as described above. In the text we refer to CBP80ΔNLS and CBP80ΔNLS-CBP20 as CBP80 and CBC, respectively. ARS2^845–871, NELF-E^354–380, and NELF-E^360–380 peptides, with or without FAM label at the N-terminus, were purchased from GenScript.

CBC [2] = biological target: T2, CBC (Homo sapiens, UniProt P52298); assay: ITC, binding to CBC without cap analogue; details: ITC (MicroCal ITC200), 25 °C, 20 mM HEPES, 120 mM NaCl, 2 mM TCEP, pH 7.8, single-site fit; no cap analogue pre-bound; mean ± SD of at least two independent experiments; SD
T2 sequence (P52298 1-156): T1 sequence (P52298 1-156)
T2 sequence (Q09161 20-790 partner): T1 sequence (Q09161 20-790)
Text: as §1, with “ARS2^845–871, NELF-E^354–380, and NELF-E^360–380 peptides, with or without FAM label at the N-terminus, were purchased from GenScript.” left out

m^7GTP-CBCmut = assay: ITC, binding to mutated CBC in the presence of m^7GTP; parameters: species or system human; details: with m^7GTP; for Kd: 25 °C, pH 7.8, CBCmut = CBP20 Y50A + CBP80 Y461A/R610E/H651A, mean ± SD of 2 experiments
Procedure: For CBC, a triple mutant in CBP80 (Y461A/R610E/H651A) was combined with various mutations in CBP20 (Y50A, Y50A/Y89A, or Y50A/Y89A/D107R).
ITC experiments were performed on a MicroCal ITC200 system (Malvern). Proteins were dialyzed overnight in buffer 20 mM HEPES, 120 mM NaCl, 2 mM tris(2-carboxyethyl)phosphine, pH 7.8. Injections of 1.5 µl protein A were added at an interval of 120–180 s into 205 µl of protein B in the cell, with a stirring speed of 800 rpm at 25 °C. The experimental data were analysed with MicroCal ITC Origin and were fitted to a single-site binding equation.

[3] = test system: CBC with triple mutants of both CBP20 and CBP80; assay: m^7GTP-sepharose pull down with mutated CBC; type: binding, human; details: CBP80 Y461A/R610E/H651A combined with CBP20 Y50A/Y89A/D107R
Text: For CBC, a triple mutant in CBP80 (Y461A/R610E/H651A) was combined with various mutations in CBP20 (Y50A, Y50A/Y89A, or Y50A/Y89A/D107R). Binding of ARS2^827–871 to mutated CBC was first tested by m^7GTP-sepharose pull down (Supplementary Fig. 6).

m^7GTP-CBC [4] = biological target: T1, m^7GTP-CBC; assay: Fluorescence polarisation with FAM-labelled C-terminal peptides; type: binding; details: 40 nM FAM peptide, 25 °C, n = 3; for Change of fluorescence polarisation on addition of labelled peptide to m^7GTP-CBC: 20 mM HEPES pH 7.8, 120 mM NaCl, 2 mM TCEP, ex 495 / em 515 nm
Procedure: (§2) Fig. 4 Incompatibility of ARS2-PHAX and NELF-E binding to CBC. a, b Competition on m^7GTP-sepharose. a In separate experiments, different amounts of ARS2^147–871 were added to preformed CBC–NELF–E complex immobilised on m^7GTP-sepharose. […] The fluorophore FAM is represented with a star. Note that different constructs of NELF-E and ARS2 were used in c, d, and e compared to f, g, and h and are therefore represented by slightly different shapes. Error bars show the SD of three experiments
Fluorescence anisotropy binding assays were performed with N-terminal FAM-labelled ARS2^845–871 and […] peptides. 40 nM peptides were titrated with increasing concentrations of proteins in 20 mM HEPES, pH 7.8, 120 mM NaCl, 2 mM tris(2-carboxyethyl)phosphine. For the competition assay CBC–ARS2 and CBC–NELF–E complexes were preformed in the presence of 25 µM m^7GTP using 40 nM ARS2^827–871(FAM) peptide together with 60 nM CBC and 40 nM NELF-E^354–380(FAM) peptide with 1 µM CBC. […] To observe a change in polarisation at reasonable protein concentrations, CBC and NELF-E^244–380 concentrations that saturate half of the FAM-labelled peptides were used to preform the individual complexes. Fluorescence polarisation was measured at 25 °C with a microplate reader (CLARIOstar BMG LABTECH) using an excitation wavelength of 495 nm and emission wavelength of 515 nm. For analysis the polarisation value for the peptide alone was subtracted from the measurements.

CBC [5] = biological target: T2, CBC; assay: Size exclusion chromatography (gel filtration) co-elution with CBC, with m^7GTP; type: binding; details: gel filtration with 500 µM m^7GTP, fractions analysed by SDS-PAGE
Procedure: (§3) Fig. 1 The interaction of CBC with ARS2 is enhanced in the presence of m^7GTP. a Schematic diagram of the domain structure of ARS2 based on ref. [26]. b Gel filtration chromatogram and Coomassie-stained SDS-PAGE of CBC-ARS2 in the presence and absence of m^7GTP. Purified recombinant CBC and ARS2^147–871 were mixed with (orange) or without (blue) 500 µM m^7GTP and subjected to gel filtration. Their elution profiles were overlaid (left) and single fractions analysed by SDS-PAGE (middle and right). Purified recombinant CBC and C-terminally truncated ARS2^147–845 were mixed with 500 µM m^7GTP and analysed in a similar way (bottom left). c ITC data and curve fit to derive the affinity of different ARS2 constructs for CBC. CBC or m^7GTP-CBC in the sample cell was titrated by ARS2. […] K D values and standard deviation represent the average from at least two independent experiments. d Sequence alignment of the C-terminus of ARS2. Conserved residues are highlighted in red. Figure made with ESPript[54]
(§4) Fig. 2 The interaction of CBC with NELF-E is enhanced in the presence of m^7GTP. a Schematic diagram of the domain structure of NELF-E. b Gel filtration chromatogram and Coomassie-stained SDS-PAGE of CBC-NELF-E in the presence and absence of m^7GTP. […] Their elution profiles were overlaid (left) and single fractions analysed by SDS-PAGE (middle and right). […]

[6] = test system: CBC–PHAX complex immobilised on m^7GTP-sepharose; assay: Displacement pull down on m^7GTP-sepharose, CBC–PHAX; type: binding, human; details: different amounts added, 1 h at 4 °C, flow through and elution by SDS-PAGE
Procedure: as §2
CBC-NELF-E^1–380 or CBC-PHAX^1–394 were immobilised on m^7GTP-sepharose and incubated for 1 h at 4 °C with different amounts of ARS2^147–871 or NELF-E^1–380 in 20 mM HEPES, pH 7.8, 120 mM NaCl, 2 mM tris(2-carboxyethyl)phosphine, respectively. The flow through, as well as the elution from the beads after extensive washing, was analysed by SDS-PAGE followed by Coomassie staining.

CBC [7] = biological target: T2, CBC; assay: Size exclusion chromatography (gel filtration) co-elution with CBC, without m^7GTP; type: binding; details: fractions analysed by SDS-PAGE, absence of m^7GTP
Procedure: as §3, §4

- Kd (m^7GTP-CBC [1]): 3.3 ± 1.1 µM
Substance: DKRTQIVYSDDVYKENLVDGF [NELF-E 360–380]

- Kd (CBC [2]): 12.2 ± 3.5 µM
- Kd (m^7GTP-CBCmut): ~12 µM
- Kd (m^7GTP-CBCmut; SD): 11.6 ± 1.1 µM
- Reduction in affinity of CBCmut compared to wild-type CBC (m^7GTP-CBCmut): twelvefold
- Kd (m^7GTP-CBC [1]): 1 ± 0.2 µM
- Enhancement of the interaction with CBC when m^7GTP is bound (m^7GTP-CBC [1]; ratio of ITC K D without / with m^7GTP): twelve-fold
- Change of polarisation on titration to m^7GTP-CBC-NELF-E^354–380(FAM) (m^7GTP-CBC [4]; competition, 1 µM CBC, 25 µM m^7GTP): decrease in polarisation
Substance: ARS2 827–871: human ARS2 isoform 4 residues 827–871, E. coli expressed construct (APYGAGRGNYDAFRGQGGYPGKPRNRMVRGDPRAIVEYRDLDAPD; isoform 4; UniProt Q9BXP5 827-871, looked up, fragment)
- Co-elution with mutated CBC in m^7GTP-sepharose pull down [3]: abolished co-elution

Substance: ARS2^845–871(FAM): N-terminal FAM-labelled ARS2 845–871 peptide ({FAM}-YPGKPRNRMVRGDPRAIVEYRDLDAPD; UniProt Q9BXP5 845-871, looked up, fragment) [reference compound]
- Change of fluorescence polarisation on addition of labelled peptide to m^7GTP-CBC (m^7GTP-CBC [4]): increase in fluorescence polarisation, indicating binding

Substance: NELF-E^1–380: full-length human NELF-E, expressed in High Five insect cells
- Interaction with CBC by SEC in the presence of m^7GTP (CBC [5]): stabilised the complex
- Displacement of PHAX from preformed CBC-PHAX^1–394 bound to m^7GTP-sepharose [6]: resulted in the displacement of PHAX^1–394
- Interaction with CBC by SEC (CBC [7]): partially co-eluted

- Kd (m^7GTP-CBC [1]): 1.1 ± 0.16 µM
Substance: RNRMVRGDPRAIVEYRDLDAPDDVDFF [ARS2 845–871]

Substance: NELF-E^354–380(FAM): N-terminal FAM-labelled NELF-E 354–380 peptide ({FAM}-PKGCHRDKRTQIVYSDDVYKENLVDGF; UniProt P18615 354-380, looked up, fragment) [reference compound]
- Change of fluorescence polarisation on addition of labelled peptide to m^7GTP-CBC (m^7GTP-CBC [4]): increase in fluorescence polarisation, indicating binding

- Kd (m^7GTP-CBC [1]): 1.8 ± 0.26 µM
Substance: ARS2 827–871 F871D: ARS2 827–871 construct with F871D mutation (GRGNYDAFRGQGGYPGKPRNRMVRGDPRAIVEYRDLDAPDDVDFD)

Substance: PHAX: full-length human PHAX (phosphorylated adaptor for RNA export), residues 1–394
- Kd (m^7GTP-CBC [1]): 0.13 ± 0.05 µM
